The values that follow come from US20070036793A1, “Methods for use of an lkb1/strad7mo25 complex” (priority 2003, published 2007).

The labels stand for the following.
B1: GST-STRADα lacking the C-terminal 88 residues (other, human)
chain: DYKDDDDKMSFLVSKPERIRRWVSEKFIVEGLRDLELFGEQPPGDTRRKTNDASSESIASFSKQEVMSSFLPEGGCYELLTVIGKGFEDLMTVNLARYKPTGEYVTVRRINLEACSNEMVTFLQGELHVSKLFNHPNIVPYRATFIADNELWVVTSFMAYGSAKDLICTHFMDGMNELAIAYILQGVLKALDYIHHMGYVHRSVKASHILISVDGKVYLSGLRSNLSMISHGQRQRVVHDFPKYSVKVLPWLSPEVLQQNLQGYDAKSDIYSVGITACELANGHVPFKDMPATQMLLEKLNGTVPCLLDTSTIPAEELTMSPSRSVANSGLSDSLTTSTPRPSNGDSPSHP
notes: not shown: glutathione S-transferase (GST) tag, N-terminal, pEBG-2T vector

The target in test [1] is T1, N-terminal Flag epitope tagged wild type LKB1 (mouse, UniProt Q9WTK7 1-436).
T1 construct: not restated for the HeLa lines; also called Flag-LKB1; WT LKB1
T1 sequence: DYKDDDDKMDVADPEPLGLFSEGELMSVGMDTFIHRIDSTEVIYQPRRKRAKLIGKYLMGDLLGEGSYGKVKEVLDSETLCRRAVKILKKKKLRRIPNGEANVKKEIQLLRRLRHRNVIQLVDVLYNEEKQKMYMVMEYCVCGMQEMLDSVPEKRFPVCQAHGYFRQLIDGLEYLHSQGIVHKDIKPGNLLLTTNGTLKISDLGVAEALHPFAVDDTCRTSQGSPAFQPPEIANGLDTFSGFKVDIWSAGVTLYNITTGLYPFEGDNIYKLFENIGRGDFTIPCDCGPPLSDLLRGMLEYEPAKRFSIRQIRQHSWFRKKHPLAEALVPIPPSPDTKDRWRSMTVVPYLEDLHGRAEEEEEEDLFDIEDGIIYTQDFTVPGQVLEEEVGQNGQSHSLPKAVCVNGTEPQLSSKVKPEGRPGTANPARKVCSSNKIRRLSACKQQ
As to the kind of experiment: GST pull-down from co-transfected 293 cells. As to the method:
(§1) FIG. 7. Binding of LKB1 to STRADα creates novel binding site(s) for MO25α. […] Similar results were obtained in 3 separate experiments.
(§2) Expression of GST-fusion proteins in 293 cells and affinity purification. 10-cm diameter dishes of 293 cells were transiently transfected with 3 to 10 μg of the pEBG-2T constructs using a modified calcium phosphate method (Alessi et al., 1996). 36 h post-transfection, the cells were lysed and the clarified lysates were incubated for 1 h on a rotating platform with glutathione-Sepharose (25 μl/dish of lysate) previously equilibrated in lysis Buffer. The beads were washed 4 times with lysis Buffer containing 150 mM NaCl and twice with Buffer A. For immunoblotting analysis, the beads were then resuspended in SDS sample Buffer after this step to give a final volume of slurry of 75 μl, and the samples immunoblotted as described above. For protein kinase assays and gel electrophoresis, the beads were washed a further twice with Buffer A containing 0.27 M sucrose and the proteins were eluted from the resin by incubation with the same buffer containing 20 mM of glutathione. The beads were then removed by filtration through a 0.44-μm filter and the eluate divided into aliquots and stored at −80° C.

The target of test [2] is B1. Put plainly: GST pull-down from co-transfected 293 cells. As to the method: as §1, §2
The target in test [3] is T2, GST-STRADα lacking the last 3 amino acids (Trp-Glu-Phe) (human, UniProt Q7RTN6 1-428).
T2 construct: not shown: glutathione S-transferase (GST) tag, N-terminal, pEBG-2T vector
T2 sequence: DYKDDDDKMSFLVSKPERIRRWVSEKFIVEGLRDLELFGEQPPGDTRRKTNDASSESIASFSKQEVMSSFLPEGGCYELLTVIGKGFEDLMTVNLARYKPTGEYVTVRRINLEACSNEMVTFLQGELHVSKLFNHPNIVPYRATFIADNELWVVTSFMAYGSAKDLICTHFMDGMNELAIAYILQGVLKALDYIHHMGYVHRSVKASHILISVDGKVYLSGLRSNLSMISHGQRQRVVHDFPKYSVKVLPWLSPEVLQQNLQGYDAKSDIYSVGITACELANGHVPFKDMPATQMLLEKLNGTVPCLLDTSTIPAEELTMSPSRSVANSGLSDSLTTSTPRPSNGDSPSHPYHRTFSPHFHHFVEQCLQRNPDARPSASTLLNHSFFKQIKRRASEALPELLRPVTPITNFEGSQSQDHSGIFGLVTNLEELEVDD
As to the kind of experiment: GST pull-down from co-transfected 293 cells, anti-Myc blot. The procedure:
5 μg of the total cell lysates prior to affinity purification were also subjected to immunoblotting with anti-Myc antibody to ensure that Myc-MO25α was expressed at similar levels in each condition (lower panel). (B) 0.5 mg of the indicated cell lysates was incubated with 5 μg of an N-terminal biotinylated peptide encompassing either the C-terminal 12 residues STRADα conjugated to streptavidin-Sepharose ([…], termed STRADα-C12) or mutants of this peptide in which the indicated residues were individually mutated to Ala. Following isolation and washing of the beads, the samples were subjected to SDS-polyacrylamide gel electrophoresis and immunoblotted with an anti-MO25α antibody. (C) Binding of bacterially expressed MO25α to the indicated peptides was analysed by surface plasmon resonance BiaCore analysis as described in Materials and Methods. […] WEF-C12 corresponds to […], WEA-C12 corresponds to […], AEF-C12 corresponds to […], WAF-C12 corresponds to […], WEF-C6 corresponds to VDDWEF.
Expression of GST-fusion proteins in 293 cells and affinity purification. 10-cm diameter dishes of 293 cells were transiently transfected with 3 to 10 μg of the pEBG-2T constructs using a modified calcium phosphate method (Alessi et al., 1996). […]

For a further test, the target named is T3, Flag-tagged STRADα (human, UniProt Q7RTN6 1-431, limits assumed).
T3 construct: pCMV5 vector; also called Flag-STRADα; FLAG-STRADα
T3 sequence: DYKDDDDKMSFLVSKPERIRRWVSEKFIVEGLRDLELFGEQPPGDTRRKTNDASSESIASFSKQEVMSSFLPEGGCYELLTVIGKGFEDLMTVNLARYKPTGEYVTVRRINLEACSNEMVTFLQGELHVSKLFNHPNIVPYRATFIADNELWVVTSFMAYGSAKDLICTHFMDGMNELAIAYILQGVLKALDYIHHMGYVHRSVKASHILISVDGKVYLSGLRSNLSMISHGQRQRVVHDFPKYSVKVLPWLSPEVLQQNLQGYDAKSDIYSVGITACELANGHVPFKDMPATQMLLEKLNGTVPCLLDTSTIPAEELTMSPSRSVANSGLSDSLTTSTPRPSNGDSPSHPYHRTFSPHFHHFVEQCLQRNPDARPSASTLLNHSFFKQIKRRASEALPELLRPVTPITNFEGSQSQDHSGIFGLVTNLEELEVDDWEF
As to the kind of experiment: heterotrimeric complex purified through GST-LKB1 from co-transfected 293 cells, colloidal blue gel and blots. As to the method: (§3) FIG. 4. MO25α is associated with LKB1 through STRAD (A) 293 cells were transfected with plasmids encoding for the expression of the indicated GST fusion proteins together with Myc-MO25α. 36 h post transfection, the GST tagged proteins were affinity purified from the cell lysates using glutathione-Sepharose as described in Materials and Methods. […] 5 μg of total cell lysates prior to affinity purification were also subjected to immunoblotting with anti-Myc antibody to ensure that Myc-MO25α was expressed at similar levels in each co-transfection (lower panel). (B) N-terminal GST tagged LKB1 was expressed in 293 cells in the presence or absence of Flag-STRADα and purified as above. The purified proteins were subjected to SDS-polyacrylamide gel electrophoresis and visualised by Colloidal blue staining (upper panel). The faint protein band indicated, corresponding to an endogenous protein of 40-kDa (marked *), was identified by tryptic peptide mass-spectral fingerprint as endogenously expressed MO25α (with 38% sequence coverage). The purified proteins were also immunoblotted with the indicated antibodies (lower panels). (C) As above except that GST-LKB1 was expressed in 293 cells together with the indicated isoforms of Flag-STRAD and Myc-MO25 and the proteins visualised by colloidal blue staining were also immunoblotted with the indicated antibodies. For all panels, similar results were obtained in at least 3 separate experiments.
(§4) Expression of GST-fusion proteins in 293 cells and affinity purification. 10-cm diameter dishes of 293 cells were transiently transfected with 3 to 10 μg of the pEBG-2T constructs using a modified calcium phosphate method (Alessi et al., 1996). 36 h post-transfection, the cells were lysed and the clarified lysates were incubated for 1 h on a rotating platform with glutathione-Sepharose (25 μl/dish of lysate) previously equilibrated in lysis Buffer.

The next test has as its target T4, Flag-tagged STRADβ (human, UniProt Q9C0K7 1-418).
T4 construct: pCMV5 vector; also called Flag-STRADβ; FLAG-STRADβ
T4 sequence: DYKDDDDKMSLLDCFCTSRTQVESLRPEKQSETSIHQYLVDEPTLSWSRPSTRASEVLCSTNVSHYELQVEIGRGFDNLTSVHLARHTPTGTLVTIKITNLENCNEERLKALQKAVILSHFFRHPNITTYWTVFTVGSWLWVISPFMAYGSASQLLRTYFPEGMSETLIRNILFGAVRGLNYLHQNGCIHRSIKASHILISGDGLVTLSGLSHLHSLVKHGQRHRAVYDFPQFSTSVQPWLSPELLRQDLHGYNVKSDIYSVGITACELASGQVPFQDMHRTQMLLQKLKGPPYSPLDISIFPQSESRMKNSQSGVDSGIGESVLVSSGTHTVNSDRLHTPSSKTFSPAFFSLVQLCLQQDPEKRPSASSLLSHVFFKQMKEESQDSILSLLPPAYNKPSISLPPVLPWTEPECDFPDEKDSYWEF
The test is described as above. The procedure:
as §3, §4

Consider B1, for which the binding result in test [1] is given as “no binding”.

B2: N-terminal Myc-tagged MO25α (other, human, UniProt Q9Y376 1-341, looked up)
chain: MPFPFGKSHKSPADIVKNLKESMAVLEKQDISDKKAEKATEEVSKNLVAMKEILYGTNEKEPQTEAVAQLAQELYNSGLLSTLVADLQLIDFEGKKDVAQIFNNILRRQIGTRTPTVEYICTQQNILFMLLKGYESPEIALNCGIMLRECIRHEPLAKIILWSEQFYDFFRYVEMSTFDIASDAFATFKDLLTRHKLLSAEFLEQHYDRFFSEYEKLLHSENYVTKRQSLKLLGELLLDRHNFTIMTKYISKPENLKLMMNLLRDKSRNIQFEAFHVFKVFVANPNKTQPILDILLKNQAKLIEFLSKFQNDRTEDEQFNDEKTYLVKQIRDLKRPAQQEA
notes: also called Myc-MO25α; myc-MO25α; not shown: only the DNA primer is printed
In the case of B2, the binding result in test [2] is “no binding”; in test [3], “no binding”; with Flag-tagged STRADα it was “binds”; in the test with Flag-tagged STRADβ, “binds”.
